From PMC2708935 come the findings set out here.

For assay [1], the target named is CR56, LRP fragment containing domains CR5 and CR6 (UniProt Q07954). The assay can be described thus: ITC.
For assay [2], the target named is CR345, LRP fragment containing domains CR3, CR4 and CR5. The assay can be described thus: other fluorescence titration.
The target in assay [3] is CR567, LRP fragment containing domains CR5, CR6 and CR7. Put plainly: other fluorescence titration.
The target in assay [4] is CR45, LRP fragment containing domains CR4 and CR5. Put plainly: other fluorescence titration.
The target in assay [5] is CR34, LRP fragment containing domains CR3 and CR4. The assay can be described thus: other fluorescence titration.
The target in assay [6] is CR56, LRP fragment containing domains CR5 and CR6 (UniProt Q07954). Put plainly: other fluorescence titration.
Assay [7] concerns the target CR678, LRP fragment containing domains CR6, CR7 and CR8. Put plainly: other fluorescence titration.
The target in assay [8] is CR89, LRP fragment containing domains CR8 and CR9. The assay can be described thus: other fluorescence titration.
Assay [9] has as its target CR78, LRP fragment containing domains CR7 and CR8. Put plainly: other fluorescence titration.
Assay [10] deals with receptor-associated protein (RAP), GST-free (UniProt P30533). The assay can be described thus: other fluorescence titration.
Assay [11] has the same target. The assay can be described thus: native gel or EMSA.
The target is the same in assay [12]. The assay can be described thus: AUC.
Assay [13] shares this target. The assay can be described thus: SEC.
The target is the same in assay [14]. The assay can be described thus: ITC.
Assay [15] addresses RAP domain 3 (D3). Put plainly: other fluorescence titration.
The target of assay [16] is RAP domain 2 (D2) (UniProt P30533). The assay can be described thus: other fluorescence titration.
The target of assay [17] is RAP domain 1 (D1). The assay can be described thus: other fluorescence titration.
Assay [18] deals with RAP domain 3 (D3). Put plainly: other fluorescence titration. The source holds these as a separate data set.
For assay [19], the target named is RAP domain 2 (D2) (UniProt P30533). Put plainly: other fluorescence titration. The source holds these as a separate data set.
Assay [20] addresses RAP domain 1 (D1). Put plainly: other fluorescence titration. The source holds these as a separate data set.
Assay [21] concerns the target CR456, LRP fragment containing domains CR4, CR5 and CR6. Put plainly: other fluorescence titration.

Where “and” joins values, the source holds several entries; their conditions need not be identical. Equal entries are not always repeated. Where two headings read alike, the source gives them in different places.

CR456, LRP fragment containing domains CR4, CR5 and CR6 (domain or fragment), sequence (Q07954 20-4544): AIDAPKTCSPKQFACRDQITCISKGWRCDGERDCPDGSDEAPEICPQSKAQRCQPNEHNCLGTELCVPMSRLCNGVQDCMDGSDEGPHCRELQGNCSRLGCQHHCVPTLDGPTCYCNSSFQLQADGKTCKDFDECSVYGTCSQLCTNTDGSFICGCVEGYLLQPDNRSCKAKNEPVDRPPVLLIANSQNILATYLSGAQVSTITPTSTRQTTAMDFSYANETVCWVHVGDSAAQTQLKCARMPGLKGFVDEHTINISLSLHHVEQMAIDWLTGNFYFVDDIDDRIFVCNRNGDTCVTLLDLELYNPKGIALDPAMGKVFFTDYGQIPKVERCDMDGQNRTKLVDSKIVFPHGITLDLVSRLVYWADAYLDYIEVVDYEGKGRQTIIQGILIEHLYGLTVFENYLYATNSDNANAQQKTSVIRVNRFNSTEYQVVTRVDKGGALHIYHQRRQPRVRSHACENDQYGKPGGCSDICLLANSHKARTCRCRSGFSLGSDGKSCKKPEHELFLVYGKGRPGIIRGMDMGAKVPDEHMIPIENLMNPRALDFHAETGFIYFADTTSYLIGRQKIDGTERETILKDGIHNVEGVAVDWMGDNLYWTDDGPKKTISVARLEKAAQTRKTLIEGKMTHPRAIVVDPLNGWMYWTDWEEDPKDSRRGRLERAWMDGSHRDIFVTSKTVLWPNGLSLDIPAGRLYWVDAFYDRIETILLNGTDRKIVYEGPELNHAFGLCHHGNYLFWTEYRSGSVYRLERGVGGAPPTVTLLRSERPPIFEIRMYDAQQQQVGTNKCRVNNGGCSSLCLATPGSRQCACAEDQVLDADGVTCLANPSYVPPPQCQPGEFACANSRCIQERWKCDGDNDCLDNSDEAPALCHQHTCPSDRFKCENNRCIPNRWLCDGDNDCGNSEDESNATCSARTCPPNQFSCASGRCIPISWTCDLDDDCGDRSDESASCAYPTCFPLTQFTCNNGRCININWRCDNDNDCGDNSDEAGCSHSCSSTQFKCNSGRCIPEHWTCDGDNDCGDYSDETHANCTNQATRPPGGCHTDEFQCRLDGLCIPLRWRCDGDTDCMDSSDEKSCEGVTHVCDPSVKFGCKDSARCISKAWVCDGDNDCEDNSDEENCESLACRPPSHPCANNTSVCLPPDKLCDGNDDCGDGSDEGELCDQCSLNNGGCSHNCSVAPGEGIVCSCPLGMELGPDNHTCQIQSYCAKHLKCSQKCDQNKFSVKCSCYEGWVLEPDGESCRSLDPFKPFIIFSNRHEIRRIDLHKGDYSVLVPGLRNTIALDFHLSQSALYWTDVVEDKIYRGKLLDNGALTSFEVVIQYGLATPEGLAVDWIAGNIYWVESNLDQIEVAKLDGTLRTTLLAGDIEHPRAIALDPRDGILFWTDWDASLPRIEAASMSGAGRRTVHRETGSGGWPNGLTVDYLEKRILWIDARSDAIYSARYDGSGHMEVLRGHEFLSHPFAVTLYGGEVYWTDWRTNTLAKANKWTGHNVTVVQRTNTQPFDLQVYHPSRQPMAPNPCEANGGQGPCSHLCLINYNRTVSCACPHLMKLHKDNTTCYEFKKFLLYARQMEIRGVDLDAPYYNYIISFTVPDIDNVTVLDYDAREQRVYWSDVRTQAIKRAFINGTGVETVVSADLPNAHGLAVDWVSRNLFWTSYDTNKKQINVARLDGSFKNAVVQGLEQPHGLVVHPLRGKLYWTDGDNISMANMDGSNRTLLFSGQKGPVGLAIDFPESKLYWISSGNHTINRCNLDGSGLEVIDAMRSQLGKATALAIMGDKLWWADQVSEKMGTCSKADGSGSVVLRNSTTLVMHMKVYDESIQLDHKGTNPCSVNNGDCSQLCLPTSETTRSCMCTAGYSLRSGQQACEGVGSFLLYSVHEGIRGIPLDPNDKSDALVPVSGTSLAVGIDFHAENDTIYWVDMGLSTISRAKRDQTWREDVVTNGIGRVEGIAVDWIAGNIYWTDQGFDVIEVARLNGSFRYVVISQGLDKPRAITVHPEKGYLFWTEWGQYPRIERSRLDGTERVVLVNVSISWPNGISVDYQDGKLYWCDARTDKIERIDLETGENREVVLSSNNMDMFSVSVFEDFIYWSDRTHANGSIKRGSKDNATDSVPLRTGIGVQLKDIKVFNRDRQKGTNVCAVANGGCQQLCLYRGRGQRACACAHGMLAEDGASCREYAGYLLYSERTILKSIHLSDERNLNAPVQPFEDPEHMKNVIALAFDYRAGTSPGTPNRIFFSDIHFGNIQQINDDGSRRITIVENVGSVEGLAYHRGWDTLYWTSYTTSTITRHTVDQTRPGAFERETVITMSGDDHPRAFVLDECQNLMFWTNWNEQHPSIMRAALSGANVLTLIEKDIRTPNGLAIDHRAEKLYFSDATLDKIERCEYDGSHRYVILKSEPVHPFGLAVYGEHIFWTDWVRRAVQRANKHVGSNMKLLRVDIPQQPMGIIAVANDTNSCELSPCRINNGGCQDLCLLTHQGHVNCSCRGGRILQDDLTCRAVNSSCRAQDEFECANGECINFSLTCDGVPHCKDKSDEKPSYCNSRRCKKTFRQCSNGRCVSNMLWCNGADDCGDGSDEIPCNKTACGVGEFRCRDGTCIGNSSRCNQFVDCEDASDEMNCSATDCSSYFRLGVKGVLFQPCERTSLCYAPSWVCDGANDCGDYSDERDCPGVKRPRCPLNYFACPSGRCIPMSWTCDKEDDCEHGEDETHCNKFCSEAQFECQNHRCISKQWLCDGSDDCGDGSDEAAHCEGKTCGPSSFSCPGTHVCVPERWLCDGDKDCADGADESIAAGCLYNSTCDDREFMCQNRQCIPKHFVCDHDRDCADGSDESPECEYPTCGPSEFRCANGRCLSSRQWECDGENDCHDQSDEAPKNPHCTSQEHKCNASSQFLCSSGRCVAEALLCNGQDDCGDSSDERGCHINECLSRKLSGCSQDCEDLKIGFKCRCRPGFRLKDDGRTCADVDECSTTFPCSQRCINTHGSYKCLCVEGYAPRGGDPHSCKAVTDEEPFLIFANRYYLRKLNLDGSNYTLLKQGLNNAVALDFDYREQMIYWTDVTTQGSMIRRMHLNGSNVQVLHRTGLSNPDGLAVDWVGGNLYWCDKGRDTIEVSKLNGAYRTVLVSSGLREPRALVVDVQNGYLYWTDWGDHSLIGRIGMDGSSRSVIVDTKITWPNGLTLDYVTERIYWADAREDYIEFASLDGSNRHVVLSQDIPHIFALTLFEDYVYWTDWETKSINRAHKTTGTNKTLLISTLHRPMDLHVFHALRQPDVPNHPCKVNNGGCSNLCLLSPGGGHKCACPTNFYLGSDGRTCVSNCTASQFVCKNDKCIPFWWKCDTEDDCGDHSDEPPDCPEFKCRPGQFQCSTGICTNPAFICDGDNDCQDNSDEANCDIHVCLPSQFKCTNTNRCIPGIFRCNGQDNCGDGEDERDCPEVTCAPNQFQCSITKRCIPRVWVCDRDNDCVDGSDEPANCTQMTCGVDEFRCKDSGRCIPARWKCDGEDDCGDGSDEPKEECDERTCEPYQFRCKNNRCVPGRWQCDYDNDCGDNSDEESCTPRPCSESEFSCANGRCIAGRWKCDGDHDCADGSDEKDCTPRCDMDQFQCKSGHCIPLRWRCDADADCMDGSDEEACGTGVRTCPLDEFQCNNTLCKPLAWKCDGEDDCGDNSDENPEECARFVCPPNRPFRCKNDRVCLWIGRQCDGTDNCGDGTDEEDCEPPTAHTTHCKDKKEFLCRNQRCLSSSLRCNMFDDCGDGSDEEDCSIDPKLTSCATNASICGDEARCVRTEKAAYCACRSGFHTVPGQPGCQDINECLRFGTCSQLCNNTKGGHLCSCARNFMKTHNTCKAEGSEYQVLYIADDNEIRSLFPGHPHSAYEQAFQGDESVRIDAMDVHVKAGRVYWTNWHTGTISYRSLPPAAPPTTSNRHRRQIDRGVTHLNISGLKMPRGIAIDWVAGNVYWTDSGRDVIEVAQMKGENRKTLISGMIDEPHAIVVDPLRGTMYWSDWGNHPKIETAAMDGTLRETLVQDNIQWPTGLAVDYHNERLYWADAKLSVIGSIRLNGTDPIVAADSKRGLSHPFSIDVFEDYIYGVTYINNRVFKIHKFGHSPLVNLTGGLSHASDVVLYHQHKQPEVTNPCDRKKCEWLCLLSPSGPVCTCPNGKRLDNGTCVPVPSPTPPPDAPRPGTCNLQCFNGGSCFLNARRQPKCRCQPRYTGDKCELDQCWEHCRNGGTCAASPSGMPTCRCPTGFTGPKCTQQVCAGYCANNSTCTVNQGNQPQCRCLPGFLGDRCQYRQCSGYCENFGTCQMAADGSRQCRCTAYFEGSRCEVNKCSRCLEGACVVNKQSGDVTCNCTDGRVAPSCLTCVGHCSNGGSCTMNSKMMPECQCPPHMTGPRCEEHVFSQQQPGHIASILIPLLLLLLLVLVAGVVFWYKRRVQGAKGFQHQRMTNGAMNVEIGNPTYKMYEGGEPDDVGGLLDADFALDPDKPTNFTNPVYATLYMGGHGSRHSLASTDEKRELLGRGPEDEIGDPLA
CR89, LRP fragment containing domains CR8 and CR9, sequence (Q07954 20-4544): as above
CR345, LRP fragment containing domains CR3, CR4 and CR5 (domain or fragment), sequence (Q07954 20-4544): as above
CR78, LRP fragment containing domains CR7 and CR8, sequence (Q07954 20-4544): as above
CR567, LRP fragment containing domains CR5, CR6 and CR7, sequence (Q07954 20-4544): as above
CR678, LRP fragment containing domains CR6, CR7 and CR8, sequence (Q07954 20-4544): as above
CR45, LRP fragment containing domains CR4 and CR5, sequence (Q07954 20-4544): as above
CR34, LRP fragment containing domains CR3 and CR4, sequence (Q07954 20-4544): as above
CR56, LRP fragment containing domains CR5 and CR6 (UniProt Q07954), sequence (Q07954 932-1013): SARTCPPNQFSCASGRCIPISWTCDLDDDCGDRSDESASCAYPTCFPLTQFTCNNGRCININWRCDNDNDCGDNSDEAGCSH
CR56, LRP fragment containing domains CR5 and CR6 (from UniProt Q07954 932-1013) (domain or fragment), sequence (Q07954 932-1013): as above
CR345, LRP fragment containing domains CR3, CR4 and CR5, sequence (Q07954 20-4544): as the sequence (Q07954 20-4544) above
CR456, LRP fragment containing domains CR4, CR5 and CR6, sequence (Q07954 20-4544): as above

Turning to RAP domain 1 (D1) (domain or fragment), the Kd came to 62 nM in assay [1]; 23 nM in assay [2]; 15 nM in [3]; 24 nM in assay [4]; 38 nM in [5]; 20 nM in assay [6]. Moreover, the equilibrium dissociation constant (Kd) in assay [7] is 859 nM; in assay [8], 35 nM; in [9], 927 nM. Also, the dH in [1] is -18.4 kcal/mol.

On to “RAP domain 2 (D2) (from UniProt P30533 35-357) (domain or fragment)”, for which the Kd in assay [1] was determined as 270 nM; in [2], 23 nM; in assay [3] it was 18 nM; in [4], 30 nM; in [5], 19 nM; in assay [6], 54 nM. The dissociation constant Kd in [7] was determined as 44 nM; in [8], 42 nM; in assay [9], 116 nM. Besides, the dH in assay [1] is -8.8 kcal/mol.

In assay [10], “CR456, LRP fragment containing domains CR4, CR5 and CR6 (domain or fragment)” showed a Kd1 (site 1, fixed in the fit) of 10 nM and a Kd2 (site 2) of 36 nM. Moreover, the stoichiometry N (equivalents of CR per RAP) in [11] turned out to be 2.

Turning to “CR56, LRP fragment containing domains CR5 and CR6 (from UniProt Q07954 932-1013) (domain or fragment)”, the stoichiometry N in assay [12] is 2 CR56 per RAP and 2.6 CR56 per RAP; in assay [13] it was 2.1 CR56 per RAP; in assay [14] it was 2 CR56 per RAP. Further, in assay [14], the dH (overall, two equivalents of CR56) was -39.2 kcal/mol. Besides, the Kd with RAP domain 3 (D3) [15] turned out to be 41 nM; with RAP domain 2 (D2) [16] it was 46 nM; with RAP domain 1 (D1) [17], 26 nM; in the assay with RAP domain 3 (D3) [18], 7 nM; with RAP domain 2 (D2) [19], 22 nM; with RAP domain 1 (D1) [20] it was 29 nM. For the same substance, the Kd1 (site 1, fixed in the fit) in assay [10] was 20 nM. Further, the Kd2 (site 2) in [10] was 56 nM. For the same substance, the stoichiometry N (equivalents of CR per RAP) in assay [11] is 2.

Regarding RAP domain 3 (D3) (domain or fragment), the dissociation constant (Kd) was 77 nM in assay [1]; 8 nM in [21]; 5.3 nM in assay [3]; 17 nM in [4]; 3.5 nM in assay [5]; 37 nM in assay [6]. For the same substance, the figures for the dissociation constant (Kd) in assay [7], in assay [8] and in assay [9] were 26 nM, 20 nM and 55 nM, respectively. In assay [1], this substance had a dH of -17.1 kcal/mol.

For the substance “CR345, LRP fragment containing domains CR3, CR4 and CR5 (domain or fragment)”, the stoichiometry N (CR345 per RAP) in [12] is 2 and 2.3. The substance further returned a stoichiometry N (CR345 per RAP) in assay [13] of 1.8. In [10], this substance yielded a Kd1 (site 1, fixed in the fit) of 20 nM and a Kd2 (site 2) of 42 nM. Moreover, in [11], the stoichiometry N (equivalents of CR per RAP) turned out to be 2.
